# Paper PMC5586343, “t‐Darpp is an elongated monomer that binds calcium and is phosphorylated by cyclin‐dependent kinases 1 and 5” (FEBS Open Bio, 2017)
# B1: Darpp‐32 (dopamine‐ and cAMP‐regulated phosphoprotein) (natural protein, human, UniProt Q9UD71-1 1-204, looked up)
# chain: MDPKDRKKIQFSVPAPPSQLDPRQVEMIRRRRPTPAMLFRLSEHSSPEEEASPHQRASGEGHHLKSKRPNPCAYTPPSLKAVQRIAESHLQSISNLNENQASEEEDELGELRELGYPREEDEEEEEDDEEEEEEEDSQAEVLKVIRQSAGQKTTCGQGLEGPWERPPPLDESERDGGSEDQVEDPALSEPGEEPQRPSPSEPGT
# notes: Darpp‐32, longer isoform of PPP1R1B with 36 additional N-terminal residues compared with t‐Darpp; cDNA amplified from Darpp‐32/pET‐49 and cloned into pET‐28a; source: E. coli BL21 DE3, purified (Ni‐NTA)
# Molecular target: the molecule itself
# Test: cross-linking; glutaraldehyde 0.1% (v/v) and 1% (v/v), 30 min at 25 °C, then SDS/PAGE; each protein alone and an equimolar mixture of t‐Darpp and Darpp‐32
protein,measurement,value
B1,stoichiometry N,2
